Experimental data taken from patent US20110143428A1 (Genentech, published 2011).
Changes are numbered by the printed parent chain.

Assays:
VEGF-C C137S [1] = target: T1, VEGF-C C137S; experiment: SPR, Biacore (IgG1): human IgG captured on CM5 chip, VEGF-C injected, 1:1 Langmuir fit
T1 construct: also called hVEGF-C C137S; human VEGF-C C137S
T1 VEGF-C: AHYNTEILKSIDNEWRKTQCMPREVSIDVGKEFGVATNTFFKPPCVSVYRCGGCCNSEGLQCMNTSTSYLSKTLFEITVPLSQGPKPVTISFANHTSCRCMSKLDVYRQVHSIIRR

[2] = target: T2, mature VEGF-C (R&D Systems) (human, UniProt P49767 103-227); experiment: as above
T2 construct: Bought from R&D Systems; also called human VEGF-C matured form (R&D systems)
T2 sequence: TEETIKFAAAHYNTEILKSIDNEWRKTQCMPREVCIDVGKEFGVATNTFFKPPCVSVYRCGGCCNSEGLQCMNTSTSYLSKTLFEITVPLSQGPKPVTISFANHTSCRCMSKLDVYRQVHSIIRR

VEGF-C C137S [3] = target: T1, VEGF-C C137S; experiment: phage competition ELISA as in paragraph 556 with human VEGF-C C137S as antigen: phage-displayed clone VC4.5, soluble antigen varied, anti-M13-HRP, OD450
hVEGF-C = target: T3, hVEGF-C (human, UniProt P49767); experiment: phage competition ELISA: phage-displayed clone VC4.5 incubated with increasing soluble hVEGF-C, unbound phage captured on hVEGF-C coated plate, anti-M13-HRP, OD450
T3 construct: unlabelled; also called human VEGF-C
T3 sequence (VEGF-C, looked up): T2 sequence

VEGF-C C137S [4] = target: T1, VEGF-C C137S; experiment: competition ELISA: three-fold serial dilutions of VC4.5 IgG incubated 2 h on hVEGF-C C137S coated plate (5 ug/ml), then VC4.5 phage for 15 min, anti-M13-HRP, OD450 in %; competitor: VC4.5 phage
[5] = target: T4, biotinylated human VEGF-C (human, UniProt P49767 112-227, limits assumed, biotin conjugated (site not stated)); experiment: receptor blocking ELISA: fixed biotin-VEGF-C incubated 2 h with serial dilutions of IgG, unbound VEGF-C captured on immobilized VEGFR3-Fc, streptavidin-HRP, OD450; blocked interaction VEGF-C/VEGFR3. The value stands in brackets after the curve's name in the legend box; the quantity is not named on the sheet, the value agrees with the midpoint of the curve
T4 construct: Panning used the matured form from R&D Systems; also called biotin conjugated VEGF-C; biotinylated VEGF-C
T4 sequence: T1 VEGF-C with S26C

B1: anti-VEGF-C antibody hVC4.5 (hIgG1) (antibody, V domains shown)
VH: EVQLVESGGGLVQPGGSLRLSCAASGFTFTDNWIHWVRQAPGKGLEWVAVISPYSGATYYADSVKGRFTISADTSKNTAYLQMNSLRAEDTAVYYCARDADYKYAFWAFDYWGQGTLVTVSS
VL: DIQMTQSPSSLSASVGDRVTITCRASQDVSTAVAWYQQKPGKAPKLLIYSASFLYSGVPSRFSGSGSGTDFTLTISSLQPEDFATYYCQQSYTTPPTFGQGTKVEIKR
notes: Tested as human IgG1; also called VC4.5 human IgG1 form; human backbone anti-VEGF-C antibody
- Kd (VEGF-C C137S [1]): 1.1 nM
- Kd [2]: 140 nM
- IC50 (VEGF-C C137S [3]): 5.4 nM
- IC50 (hVEGF-C): 1.7 nM
- IC50 (read off the curve) (VEGF-C C137S [4]): ~7 nM
- IC50 [5]: 0.54 nM
